Experimental findings from patent US20260265360A1 (NEURACLE SCIENCE, published 2026) are described below.

Ends that are not written are not given here.

The target in one assay is T1, FAM19A5 mutant M7 (human).
T1 chain: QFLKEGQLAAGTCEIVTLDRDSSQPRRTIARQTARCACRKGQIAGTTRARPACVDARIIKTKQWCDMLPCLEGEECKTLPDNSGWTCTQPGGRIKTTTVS
Kind of assay: ELISA on phage-expressed FAM19A5 mutants M1-M8. In general terms: In an ELISA, binding on a coated surface is turned into a signal by an enzyme label.

Another assay deals with T2, FAM19A5 mutant M8 (human).
T2 chain: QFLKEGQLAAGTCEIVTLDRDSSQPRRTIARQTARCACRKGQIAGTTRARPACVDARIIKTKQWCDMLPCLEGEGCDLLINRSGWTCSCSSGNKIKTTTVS
Kind of assay: ELISA on phage-expressed FAM19A5 mutants M1-M8.

The target of assay [1] is T3, Mutant F5 peptide F5-1 (#1) (human).
T3 construct: already contained in the entry; also called mutant peptide #1
T3 peptide: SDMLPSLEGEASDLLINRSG
The experiment in a line: ELISA, plate-coated F5 mutant peptides.

Assay [2] concerns the target T4, Mutant F5 peptide F5-2 (#2) (human).
T4 construct: already contained in the entry; also called mutant peptide #2
T4 peptide: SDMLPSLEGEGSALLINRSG
Kind of assay: ELISA, plate-coated F5 mutant peptides.

Assay [3] addresses T5, Mutant F5 peptide F5-3 (#3) (human).
T5 construct: already contained in the entry; also called mutant peptide #3
T5 peptide: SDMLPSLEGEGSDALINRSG
The experiment in a line: ELISA, plate-coated F5 mutant peptides.

Assay [4] deals with T6, Mutant F5 peptide F5-4 (#4) (human).
T6 construct: already contained in the entry; also called mutant peptide #4
T6 peptide: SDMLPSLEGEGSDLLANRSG
Kind of assay: ELISA, plate-coated F5 mutant peptides.

Assay [5] concerns the target T7, Mutant F5 peptide F5-5 (#5) (human).
T7 construct: already contained in the entry; also called mutant peptide #5
T7 peptide: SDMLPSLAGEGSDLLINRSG
The experiment in a line: ELISA, plate-coated F5 mutant peptides.

Assay [6] concerns the target T8, Mutant F5 peptide F5-6 (#6) (human).
T8 construct: already contained in the entry; also called mutant peptide #6
T8 peptide: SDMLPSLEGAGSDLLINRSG
The experiment in a line: ELISA, plate-coated F5 mutant peptides.

Assay [7] has as its target T9, Mutant F5 peptide F5-7 (#7) (human).
T9 construct: already contained in the entry; also called mutant peptide #7
T9 peptide: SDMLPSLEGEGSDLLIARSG
The experiment in a line: ELISA, plate-coated F5 mutant peptides.

The target in assay [8] is T10, Mutant F5 peptide F5-8 (#8) (human).
T10 construct: already contained in the entry; also called mutant peptide #8
T10 peptide: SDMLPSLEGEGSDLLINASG
Kind of assay: ELISA, plate-coated F5 mutant peptides.

Another assay has as its target T11, FAM19A5 mutant M6 (human).
T11 chain: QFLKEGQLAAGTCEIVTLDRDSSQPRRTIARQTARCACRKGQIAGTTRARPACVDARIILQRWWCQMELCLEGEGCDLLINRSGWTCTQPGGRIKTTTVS
Kind of assay: ELISA on phage-expressed FAM19A5 mutants M1-M8.

For assay [9], the target named is T12, FAM19A5 epitope fragment F1, BSA-conjugated (human, also: conjugated to BSA).
T12 construct: which number belongs to which fragment is not spelled out
T12 peptide: QLAAGTCEIVTLDR
The experiment in a line: ELISA, plate-coated BSA-conjugated FAM19A5 fragments F1-F6. Here is the method: (§1) Binding of the different anti-FAM19A5 antibodies to the BSA-conjugated peptide fragments F1-F6 was determined by Western blot analysis or ELISA assay. For the Western blot analysis, BSA-conjugated FAM19A5 fragments F1-F6 were separated by SDS polyacrylamide gel electrophoresis and transferred to a nitrocellulose membrane by the standard procedure. The membrane was incubated with the anti-FAM19A5 antibody (e.g., 1-65, […], 1-65-scFv-rabbit Fc-SSS), and the antigen-antibody complexes were detected with the appropriate secondary antibody conjugated with horse-radish peroxidase (anti-rabbit IgG (Fc specific)-HRP, 1:4000 dilution). For the ELISA assay, the following protocol was used. FAM19A5 fragment F1-F6 (diluted to 1 μg/mL in 50 mM carbonate buffer (Biosesang) or to 20 μg/mL for high concentration analysis) were used to coat the wells of 96-well immuno plates (Thermo Scientific) (100 μL/well) overnight at 4° C. and then subsequently washed twice in 1×PBS. The plates were then blocked with the blocking buffer (100 μL/well) for 1 hour at room temperature. During the 1-hour incubation, the relavant anti-FAM19A5 antibodies were diluted to 1 μg/mL (or 20 μg/mL for high concentration analysis) in the diluent buffer. Once the plates were washed (2× using 1×PBS), the diluted anti-FAM19A5 antibodies were added to the appropriate wells, and the plates were incubated at room temperature for 1 hour. The plates were subsequently washed for a total of five times using the washing buffer. Next, the ODP substrate (prepared by dissolving one ODP tablet (O-phenylenediamine Dihydrochloride, Thermo) into 9 mL of sterilized deionized water and 1 mL of 10× stable Peroxide Stable buffer (Theromo)) was added to each of the wells, and the color change reaction was allowed to occur for 10 minutes. This reaction was stopped by adding 100 μL of 2N H2SO4 (Daejung) to the wells. The absorption value of each of the wells was detected at 492 nm using a 96-well microplate reader (Molecular Device).
(§2) As shown in FIGS. 19 and 20A, the anti-FAM19A5 antibody 1-65 bound strongly to fragment F5 as measured by both Western Blot and ELISA assay, respectively.

For assay [10], the target named is T13, FAM19A5 epitope fragment F2, BSA-conjugated (human, conjugated to BSA).
T13 peptide: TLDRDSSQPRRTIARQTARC
Described as above. Here is the method: as §1, §2

In assay [11] the target is T14, FAM19A5 epitope fragment F3, BSA-conjugated (human, conjugated to BSA).
T14 peptide: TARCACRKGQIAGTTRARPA
The assay is described as above. As for the experimental part:
as §1, §2

Assay [12] addresses T15, FAM19A5 epitope fragment F6, BSA-conjugated (human, conjugated to BSA).
T15 peptide: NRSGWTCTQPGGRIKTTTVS
Described as above. As for the experimental part:
as §1, §2

In a further assay the target is T16, FAM19A5 mutant M2 (human).
T16 chain: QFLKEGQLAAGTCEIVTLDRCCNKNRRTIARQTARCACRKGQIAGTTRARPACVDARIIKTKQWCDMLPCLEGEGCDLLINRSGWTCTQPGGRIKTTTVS
Kind of assay: ELISA on phage-expressed FAM19A5 mutants M1-M8.

B1: Anti-FAM19A5 antibody 13F7 (antibody, V domains shown)
VH: QVQLQEWGAGLLKPSETLSLTCAINAESFNGYSWTWIRQTPGKGLEWIGEISHFGSANYNPSLKSRATISADKSKNQFSLKLTSVTAVDTAVYYCARALRGTYSRFYYGMDVWGQGTTVTVSS
VL: DIVMTQTPLSLPVAPGEPASISCRSSQSLLHSNGYNYLDWYVQKPGQPPQLLIYLGSNRASGVPDRFSGSGSGTDFTLKISRVEAEDVGVYYCMQARQTPLTFGGGTKVEIK
With B1, the binding result was “binds” with FAM19A5 mutant M7 and “no binding” in the assay with FAM19A5 mutant M8.

B2: Anti-FAM19A5 antibody 1-65 (antibody, V domains shown)
VH: AVTLDESGGGLQTPGGALSLVCKASGFTFSSYQMGWVRQAPGKGLEWVGVINKSGSDTSYGSAVKGRATISRDNGQSTVRLQLNNLRAEDTGTYFCAKGSASYITAATIDAWGHGTEVIVSS
VL: ALTQPSSVSANPGETVKITCSGGGSSGYGYGWYQQKSPSSAPLTVIYWNDKRPSDIPSRFSGSKSGSTHTLTITGVQAEDEAVYFCGNDDYSSDSGYVGVFGAGTTLTVL
notes: also called monoclonal antibody clone 1-65
Take B2: the binding result in assay [1] was “binds”; in assay [2], “no binding”; in assay [3], “no binding”; in assay [4], “no binding”; in assay [5], “binds”; in assay [6], “binds”. In addition, the binding result in [7] is recorded as “binds”; in assay [8], “no binding”; with FAM19A5 mutant M6 it was “no binding”; with FAM19A5 mutant M7 it was “no binding”; in the assay with FAM19A5 mutant M8 it was “no binding”.

B3: Anti-FAM19A5 antibody P2-A03 (antibody, V domains shown)
VH: QSVEESGGRLVTPGTPLTLTCTVSGFSLNNYDMSWVRQAPGKGLEYIGFMDTDGSAYYATWAKGRFTISRTSTTVDLKMTSPTTEDTATYFCARRGSSYYGGIDIWGPGTPVTVSL
VL: ELDLTQTPASVSEPVGGTVTIKCQASQSIGGNLAWYQQKPGQPPKLLIYRASTLASGVPSRFKGSGSGTDFTLTISDLECADAATYYCQSPAYDPAAYVGNAFGGGTELEIL
Regarding B3, the binding result with FAM19A5 mutant M8 is “no binding”.

B4: Anti-FAM19A5 antibody P2-C12 (antibody, V domains shown)
VH: QSLEESGGRLVTPGTPLTLTCTVSGFSLSTYAVTWVRQAPGKGLEWIGYINWRGGTSYANWAKGRFTISKTSSTTVDLKMTSPTTEDTATYFCARDASSGAAFGSYGMDPWGPGTLVTVSS
VL: ELDMTQTPSSVSAAVGGTVTIKCQASQSISSYLSWYQQKPGQPPKLLIYEASKLASGVPSRFSGSGYGTEFTLTISDLECADAATYYCQQGYSSTNVWNAFGGGTNVEIK
For B4, the binding result in assay [1] was “no binding”; in assay [2] it was “binds”; in assay [3] it was “binds”; in assay [4] it was “binds”; in [5], “binds”; in assay [6] it was “no binding”. The binding result in assay [7] is reported as “binds”; in assay [8] it was “no binding”; with FAM19A5 mutant M6 it was “no binding”; in [9], “no binding”; in assay [10], “no binding”; in assay [11], “no binding”. Moreover, the binding result in assay [12] is recorded as “no binding”.

B5: Anti-FAM19A5 antibody 3-2 (antibody, V domains shown)
VH: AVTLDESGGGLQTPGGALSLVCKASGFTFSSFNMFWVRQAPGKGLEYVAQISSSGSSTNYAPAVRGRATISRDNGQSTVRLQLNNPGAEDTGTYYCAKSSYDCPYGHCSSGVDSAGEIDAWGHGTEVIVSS
VL: ALTQPSSVSANPGETVKITCSGGGSYAGSYYYGWYQQKAPGSAPVTLIYESNKRPSDIPSRFSGSTSGSTATLTITGVQADDEAIYYCGSWDSSNGGIFGAGTTLTVL
notes: also called h3-2; m3-2
With B5, the binding result with FAM19A5 mutant M2 was “no binding”; in assay [10] it was “binds”.

B6: Anti-FAM19A5 antibody 13B4 (antibody, V domains shown)
VH: QVQLQESGPGLVKPSGTLSLNCAVSGGSISSSNWWSWVRQPPGKGLEWIGEIYHGGTTNYNPSLKGRVTMSVDKTKNQFSLRLSSVTAVDTAVYYCARWQLVGGLDVWGQGTTVTVSS
VL: SYELTQPLSVSVSPGQTASITCSGDKLGNVYASWYQQKPGQSPTLVIYQDNKRPSGIPERFSGSNSGKTATLTISGTQALDEADYYCQAWDSSTAVFGGGTKLTVL
On to B6, for which the figures for the binding result with FAM19A5 mutant M6, with FAM19A5 mutant M7 and with FAM19A5 mutant M8 were “no binding”, “binds” and “no binding”, respectively.
